# Reference: PMC8835488, “Production and Biochemical Characterization of Dimeric Recombinant Gremlin-1” (International Journal of Molecular Sciences, 2022)
# Columns and labels:
# [1] = biological target: the molecule itself; experiment: non-reducing SDS-PAGE with anti-gremlin Western blot; IMAC-purified gremlin (250 mM imidazole eluate), SDS-PAGE without DTT; shows disulfide-bound dimer beside monomer
# [2] = biological target: the molecule itself; experiment: non-reducing SDS-PAGE; bought 10xHis-tagged gremlin from murine myeloma cells, several batches (Figure S1); SDS-PAGE under reducing or non-reducing conditions
Protein,dimer vs. monomer ratio [1],stoichiometry N [1],stoichiometry N [2]
"recombinant rat gremlin-1 with C-terminal hexa-histidine tag (pcDNA3-Gremlin-1-HisTag) (natural protein, UniProt O35793 25-184, looked up, N-glycosylated in part (glycosylated ~30–45%, non-glycosylated ~70–55% of the protein), gremlin-1, rat; secreted protein; the 0.8–0.9 M NaCl heparin-sepharose fractions hold the dimer; also called IMAC-purified gremlin; IMAC gremlin; source: HEK293T, transiently transfected, secreted into the supernatant; purified by IMAC (Ni2+ column), when indicated followed by heparin-sepharose chromatography; not shown: His6, C-terminal, kept) KKKGSQGAIPPPDKAQHNDSEQTQSPPQPGSRTRGRGQGRGTAMPGEEVLESSQEALHVTERKYLKRDWCKTQPLKQTIHEEGCNSRTIINRFCYGQCNSFYIPRHIRKEEGSFQSCSFCKPKKFTTMMVTLNCPELQPPTKKKRVTRVKQCRCISIDLD",~20%,2,–
"10xhis-tagged gremlin expressed in murine myeloma cells (recombinant human gremlin-1 purchased from R&D) (natural protein, UniProt O60565 25-184, looked up, gremlin-1, human; No catalogue number is printed; source: bought: R&D; expressed in murine myeloma cells, IMAC-purified) KKKGSQGAIPPPDKAQHNDSEQTQSPQQPGSRNRGRGQGRGTAMPGEEVLESSQEALHVTERKYLKRDWCKTQPLKQTIHEEGCNSRTIINRFCYGQCNSFYIPRHIRKEEGSFQSCSFCKPKKFTTMMVTLNCPELQPPTKKKRVTRVKQCRCISIDLD",–,–,2
